From patent publication US20050152888A1

Molecular target: Rpn10 proteasome subunit C-terminally fused with Fpr1 (strain Rpn10-FPR1) (S. cerevisiae) (UniProt P38886)
Experiment: cell-based or functional assay

Sequence of Rpn10 proteasome subunit C-terminally fused with Fpr1 (strain Rpn10-FPR1) (S. cerevisiae) (P38886 other isoform, or with tags, fused parts or gaps): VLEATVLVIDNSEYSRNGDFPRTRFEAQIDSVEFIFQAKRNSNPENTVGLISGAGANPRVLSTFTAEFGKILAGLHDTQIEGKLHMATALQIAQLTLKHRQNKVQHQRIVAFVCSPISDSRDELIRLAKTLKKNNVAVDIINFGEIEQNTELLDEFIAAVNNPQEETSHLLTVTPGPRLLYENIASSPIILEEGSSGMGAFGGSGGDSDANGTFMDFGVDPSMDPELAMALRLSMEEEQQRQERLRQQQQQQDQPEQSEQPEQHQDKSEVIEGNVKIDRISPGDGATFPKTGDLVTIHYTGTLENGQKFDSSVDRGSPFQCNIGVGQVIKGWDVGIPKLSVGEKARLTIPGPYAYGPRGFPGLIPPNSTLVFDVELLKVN

## HA epitope-tagged Tor-His3 purified from a bacterial expression system (PROTet.e133-TOR-link-HIS3HA) (from UniProt P35169 1883-2078; P06633 1-220)
  half-life of reporter degradation in vitro with purified proteasomes and rapamycin (anti-HA Western): 15 min
